doi:10.1101/2022.01.02.474068

Biological target: BTN2A1 B30.2 domain (human)
Assay: SEC-MALS

**Q.** “BTN2A1 B30.2 domain (domain or fragment)” was tested. Which stoichiometry N did it give?
**A.** Its stoichiometry N is 2.
